Target: Cystic fibrosis transmembrane conductance regulator (CFTR), wild type, transiently expressed in HEK293 cells (UniProt P13569 1-1480)
Test: co-IP

Sequence of Cystic fibrosis transmembrane conductance regulator (CFTR), wild type, transiently expressed in HEK293 cells (P13569 whole entry): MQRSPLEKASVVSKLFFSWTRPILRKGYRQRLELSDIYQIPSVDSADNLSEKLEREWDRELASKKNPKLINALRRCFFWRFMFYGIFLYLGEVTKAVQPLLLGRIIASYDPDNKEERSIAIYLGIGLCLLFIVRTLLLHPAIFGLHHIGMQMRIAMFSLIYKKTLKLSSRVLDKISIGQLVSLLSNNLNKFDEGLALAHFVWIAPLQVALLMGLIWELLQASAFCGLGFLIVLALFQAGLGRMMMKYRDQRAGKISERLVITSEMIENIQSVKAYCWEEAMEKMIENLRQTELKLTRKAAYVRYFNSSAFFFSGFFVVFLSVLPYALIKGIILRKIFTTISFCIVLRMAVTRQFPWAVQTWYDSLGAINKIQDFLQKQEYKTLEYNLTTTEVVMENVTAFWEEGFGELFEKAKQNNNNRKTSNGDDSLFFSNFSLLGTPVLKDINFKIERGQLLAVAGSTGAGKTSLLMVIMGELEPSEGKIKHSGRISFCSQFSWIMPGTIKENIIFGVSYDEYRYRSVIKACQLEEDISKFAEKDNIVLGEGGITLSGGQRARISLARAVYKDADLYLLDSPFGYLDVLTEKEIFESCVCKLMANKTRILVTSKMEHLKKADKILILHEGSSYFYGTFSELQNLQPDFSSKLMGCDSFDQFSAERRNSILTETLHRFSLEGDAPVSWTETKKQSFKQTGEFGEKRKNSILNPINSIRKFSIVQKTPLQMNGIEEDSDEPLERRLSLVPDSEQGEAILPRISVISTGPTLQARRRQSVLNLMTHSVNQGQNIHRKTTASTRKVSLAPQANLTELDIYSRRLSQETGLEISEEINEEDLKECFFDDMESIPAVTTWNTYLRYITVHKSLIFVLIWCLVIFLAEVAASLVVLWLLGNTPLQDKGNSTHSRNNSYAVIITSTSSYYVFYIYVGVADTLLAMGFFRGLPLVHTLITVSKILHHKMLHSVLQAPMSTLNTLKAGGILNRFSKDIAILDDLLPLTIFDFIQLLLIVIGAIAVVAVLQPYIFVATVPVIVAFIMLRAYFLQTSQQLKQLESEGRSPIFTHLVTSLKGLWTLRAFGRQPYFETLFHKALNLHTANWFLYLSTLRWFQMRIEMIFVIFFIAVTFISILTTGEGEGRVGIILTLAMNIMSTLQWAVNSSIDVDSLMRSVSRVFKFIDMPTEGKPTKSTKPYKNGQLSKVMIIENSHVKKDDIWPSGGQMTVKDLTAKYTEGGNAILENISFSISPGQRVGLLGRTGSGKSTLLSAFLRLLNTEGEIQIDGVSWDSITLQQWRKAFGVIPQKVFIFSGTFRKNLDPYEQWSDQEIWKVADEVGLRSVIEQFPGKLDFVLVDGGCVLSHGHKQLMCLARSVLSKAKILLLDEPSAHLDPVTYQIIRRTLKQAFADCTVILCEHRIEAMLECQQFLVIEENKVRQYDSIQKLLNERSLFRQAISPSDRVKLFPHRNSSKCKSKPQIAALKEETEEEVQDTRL

B1: 14-3-3ε, endogenous in HEK293 cells (natural protein, human (endogenous in HEK293), UniProt P62258 1-255, looked up)
chain: MDDREDLVYQAKLAEQAERYDEMVESMKKVAGMDVELTVEERNLLSVAYKNVIGARRASWRIISSIEQKEENKGGEDKLKMIREYRQMVETELKLICCDILDVLDKHLIPAANTGESKVFYYKMKGDYHRYLAEFATGNDRKEAAENSLVAYKAASDIAMTELPPTHPIRLGLALNFSVFYYEILNSPDRACRLAKAAFDDAIAELDTLSEESYKDSTLIMQLLRDNLTLWTSDMQGDGEEQNKEALQDVEDENQ
- fold increase of the co-precipitate with forskolin against basal: 3.1 fold

— article PMC3302758 (Molecular Biology of the Cell, 2012)
